These results are taken from the nanobody polyreactivity screen of Harvey et al. (2022).

The data set is described as follows: yeast display, Sf9 membrane polyspecificity reagent, FACS + sequencing; frameworks hold sequencing errors. In outline: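 After 36–48 hours of galactose induction, yeast (Saccharomyces cerevisiae BJ5465) displaying a synthetic nanobody library were stained at 4 °C for 1 hour with 10% biotinylated, detergent-solubilized Sf9 membrane reagent. Streptavidin microbeads enriched the stained cells before FACS sorting into low and high (top ~1%) gates on anti-HA and streptavidin fluorescence. Each clone's polyreactivity label reflects its gate of origin.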
Turning to “QVQLVESGGGLVQAGGSLRLSCAASGRIFYRYAMGWYRQAPGKERELVAGISNSGGSTYYADSVKGRFTISRDNAKNSVYLQRNSLKPEDTAVYYCARLSTKPLPYDYWGQGTQVTVSS”, the “polyreactivity (PSR sort gate)” value was “high polyreactivity”.

On to “QVQLVESGGGLVQAGGSLRLSCAASGRIFYRYAMGWYRQAPGKERELVASIRFSDGSTYYADSVKGRFTISRDNAKNTVYLQMNSLKPEDTALYYCAARPLRSRNGYYWGQGTQVTVSS”, for which the “polyreactivity (PSR sort gate)” value is recorded as “high polyreactivity”.

Consider “QVQLVESGGGLVQAGGSLRLSCAASGRIFYRYAMGWYSQAPGKESELVAAITWRGGSTSYPDSVKGRFTISRDNAKNTVYLQMNSLKPEATAVYYCAAAAYGVPWRSYLGVFKSHMDYWGQGTQVTVSS”, for which the “polyreactivity (PSR sort gate)” value is “high polyreactivity”.

For the sequence “QVQLVESGGGLVQAGGSLRLSCAASGRIFYRYARGWYRQAPGKEREFVAAITSGTSTNYADSVKGRFTISRDNAKNSLYVQRNSLKPEDTAVYYCATRYYWKYAEYDYWGQGTQVTVSS”, the “polyreactivity (PSR sort gate)” value was “high polyreactivity”.

As to “QVQLVESGGGLVQAGGSLRLSCAASGRIFYRYDMGWYRQAPGKERELVAAISSGGNTNYADSVKGRFTISRDNAKNTVYLQMNCLKPEDTAVYYCAKRYRSYQGSSRQGNYGYWGQGTQVSVSS”, the “polyreactivity (PSR sort gate)” value is listed as “high polyreactivity”.

Regarding “QVQLVESGGGLVQAGGSLRLSCAASGRIFYSNAMGWYRQAPGKERELVAAISGSTDSTYYADSVKGRFTISRDNAKNTDYLQMNSVKPEDTAVYYCAAADYWFYYGYYLTMDFWGQGTQVTVSS”, the “polyreactivity (PSR sort gate)” value is listed as “low polyreactivity”.

For the sequence “QVQLVESGGGLVQAGGSLRLSCAASGRIFYSNAMGWYRQAPGKERELVAAITTSGASTYYADSVKGRFTISRDNAKNTVYLQMNSLKPEDTSVYYCATYAVVYPFAMDYWGQGTQVTVSS”, the “polyreactivity (PSR sort gate)” value is given as “low polyreactivity”.

“QVQLVESGGGLVQAGGSLRLSCAASGRIFYSNTMGWNRQAPGKEREMVATITSGGSTNYADSVKGRFTISRDNAKNTVYFQMNILKPEDTAVYYCAADAYATHPFRSESDYWGQGTQVTVSS”: the “polyreactivity (PSR sort gate)” value is on record as “low polyreactivity”.

Take “QVQLVESGGGLVQAGGSLRLSCAASGRIFYSYAMGCSRQAPGKERELVAAITRGGRTKYADSVKGRFTISRDNEKNTVYLQMNSLKPEDTAVYYCAAVKFYTEYNQYDYWGQGTQVTVSS”: the “polyreactivity (PSR sort gate)” value is reported as “high polyreactivity”.

As to “QVQLVESGGGLVQAGGSLRLSCAASGRIFYSYAMGWNRQAPGKESQLVARSTRGSSTYYADSVKGRLTISRDNAKKTFYVQMNSMKPEDTAVYYCAQSRYTALTNHWSHDYWGPGTQVTVSS”, the “polyreactivity (PSR sort gate)” value is “low polyreactivity”.

As to “QVQLVESGGGLVQAGGSLRLSCAASGRIFYSYAMGWYRQAPGKDRELVAAITRTGGNTYYADSVKGRFTISRDNAKNTVYLQMNSLKPEDTAVYYCNAEYWKEHYPEIYYSWGQGTQVTVSS”, the “polyreactivity (PSR sort gate)” value is recorded as “low polyreactivity”.

For the sequence “QVQLVESGGGLVQAGGSLRLSCAASGRIFYSYAMGWYRQAPGKEREFVAVISSDGGSTYYADSVKGRFTISRDNAKNTVYLQMNSLKPEDTAVYYCNAEIDYDVYEYDYWGQGTQVTVSS”, the “polyreactivity (PSR sort gate)” value is reported as “low polyreactivity”.

For the sequence “QVQLVESGGGLVQAGGSLRLSCAASGRIFYSYAMGWYRQAPGKERELVAAISSRTGSTYYADSVKGRFTISRDNAKNTVYLQMNSLKPEDTAVYYCAAQSGWLRYYYWGQGTLVTVSS”, the “polyreactivity (PSR sort gate)” value is listed as “high polyreactivity”.

On to “QVQLVESGGGLVQAGGSLRLSCAASGRIFYSYAMGWYRQAPGKERELVAAITRSVARTYYADSVKGRFTISRDNAKNTVYLQMNCLKPEDTAVYYCAADWYQWGGRYYAPRYYYWGQGTQVTVSS”, for which the “polyreactivity (PSR sort gate)” value is on record as “high polyreactivity”.

Consider “QVQLVESGGGLVQAGGSLRLSCAASGRIFYTNAMGWYRKAPGKERELVAGITCSGDSTYYADSVKGRFTISRDNAKNTVYLQMNSLKPEDTPVYYCAARWRYVLMDYWGQGNQVTVSS”, for which the “polyreactivity (PSR sort gate)” value was “low polyreactivity”.

For “QVQLVESGGGLVQAGGSLRLSCAASGRIFYTNAMGWYRQAPGKERELVATISGSGGNTYYADSVKGRFTISRDNAKNTVYLQMNSLKPEDTAVYYCAKAYYTPYGVYVLHYYWGQGTQVTVSS”, the “polyreactivity (PSR sort gate)” value is listed as “high polyreactivity”.
